In IntAct's records for PubMed 21037004:

B1: Protein-export protein SecB (Escherichia coli (strain K12)), P0AG86 (parent)
chain: MSEQNNTEMTFQIQRIYTKDISFEAPNAPHVFQKDWQPEVKLDLDTASSQLADDVYEVVLRVTVTASLGEETAFLCEVQQGGIFSIAGIEGTQMAHCLGAYCPNILFPYARECITSMVSRGTFPQLNLAPVNFDALFMNYLQQQAGEGTEEHQDA

Variants of: B1
Conditions: with seca_ecoli secA

effect of a mutation on the interaction	Variant
increasing interaction strength	MSEQNNTEMTFQIQRIYTKDISFEAPNAPHVFQKDWQPEVKLDLDTASSQLADDVYEVVLRVTVTASLGEETAFLCEVQQGGIFSIAGIEGTQMAHCLGAYCPNILFPYARECITSMVSRGTFPQLNLAPVNFDALFMNYLQCQAGEGTEEHQDA [Q143C]
increasing interaction strength	MSEQNNTEMTFQIQRIYTKDISFEAPNAPHVFQKDWQPEVKLDLDTASSQLADDVYEVVLRVTVTASLGEETAFLCEVQQGGIFSIAGIEGTQMAHCLGAYCPNILFPYARECITSMVSRGTFPQLNLAPVNFDALFMNYCQQQAGEGTEEHQDA [L141C]
increasing interaction strength	MSEQNNTEMTFQIQRIYTKDISFEAPNAPHVFQKDWQPEVKLDLDTASSQLADDVYEVVLRVTVTASLGEETAFLCEVQQGGIFSIAGIEGCQMAHCLGAYCPNILFPYARECITSMVSRGTFPQLNLAPVNFDALFMNYLQQQAGEGTEEHQDA [T92C]
increasing interaction strength	MSEQNNTEMTFQIQRIYTKDISFEAPNAPHVFQKDWQPEVKLDLDCASSQLADDVYEVVLRVTVTASLGEETAFLCEVQQGGIFSIAGIEGTQMAHCLGAYCPNILFPYARECITSMVSRGTFPQLNLAPVNFDALFMNYLQQQAGEGTEEHQDA [T46C]
increasing interaction strength	MSEQNNTEMTFQICRIYTKDISFEAPNAPHVFQKDWQPEVKLDLDTASSQLADDVYEVVLRVTVTASLGEETAFLCEVQQGGIFSIAGIEGTQMAHCLGAYCPNILFPYARECITSMVSRGTFPQLNLAPVNFDALFMNYLQQQAGEGTEEHQDA [Q14C]
increasing interaction strength	MSEQNNTEMTFQIQRIYTKDISFEAPNAPHVFQKDWQPEVKLCLDTASSQLADDVYEVVLRVTVTASLGEETAFLCEVQQGGIFSIAGIEGTQMAHCLGAYCPNILFPYARECITSMVSRGTFPQLNLAPVNFDALFMNYLQQQAGEGTEEHQDA [D43C]

The remaining lines, values behind:

Variant	effect of a mutation on the interaction
MSEQNNTEMTFQIQRIYTKDISFEAPNAPHVFQKDWQPEVKLDLDTASSCLADDVYEVVLRVTVTASLGEETAFLCEVQQGGIFSIAGIEGTQMAHCLGAYCPNILFPYARECITSMVSRGTFPQLNLAPVNFDALFMNYLQQQAGEGTEEHQDA [Q50C]	increasing interaction strength
MSEQNNTEMTFQIQRIYTKDISFCAPNAPHVFQKDWQPEVKLDLDTASSQLADDVYEVVLRVTVTASLGEETAFLCEVQQGGIFSIAGIEGTQMAHCLGAYCPNILFPYARECITSMVSRGTFPQLNLAPVNFDALFMNYLQQQAGEGTEEHQDA [E24C]	increasing interaction strength
MSEQNNTEMTFQIQRIYTKDISFEAPNAPHVFQKCWQPEVKLDLDTASSQLADDVYEVVLRVTVTASLGEETAFLCEVQQGGIFSIAGIEGTQMAHCLGAYCPNILFPYARECITSMVSRGTFPQLNLAPVNFDALFMNYLQQQAGEGTEEHQDA [D35C]	increasing interaction strength
MSEQNNTEMTFQIQRIYTKDISFEAPNAPHVFQKDWQPEVKLDLDTASSQLADDVYEVVLRVTVTASLGEETAFLCEVQQGGIFSIAGIEGTQMAHCLGAYCPNILFPYARECITSMVSRGTFPQLNLAPVNFDACFMNYLQQQAGEGTEEHQDA [L136C]	increasing interaction strength
MSEQNNTEMTFQIQRIYTKDISFEAPNAPHVFQKDWQPEVKLDLCTASSQLADDVYEVVLRVTVTASLGEETAFLCEVQQGGIFSIAGIEGTQMAHCLGAYCPNILFPYARECITSMVSRGTFPQLNLAPVNFDALFMNYLQQQAGEGTEEHQDA [D45C]	increasing interaction strength
MSEQNNTEMTFQIQRIYTKDISFEAPNAPHVFQKDWQPEVKLDLDTASSQLADDVYEVVLRVTVTASLGEETAFLCEVQQGGIFCIAGIEGTQMAHCLGAYCPNILFPYARECITSMVSRGTFPQLNLAPVNFDALFMNYLQQQAGEGTEEHQDA [S85C]	increasing interaction strength
MSEQNNTEMTFQIQRIYTKDISFEAPNAPHVFCKDWQPEVKLDLDTASSQLADDVYEVVLRVTVTASLGEETAFLCEVQQGGIFSIAGIEGTQMAHCLGAYCPNILFPYARECITSMVSRGTFPQLNLAPVNFDALFMNYLQQQAGEGTEEHQDA [Q33C]	increasing interaction strength
MSEQNNTEMTFQIQRIYTKDISFEAPNAPHVFQKDWQPEVKLDLDTASSQLADDVYEVVLRVTVCASLGEETAFLCEVQQGGIFSIAGIEGTQMAHCLGAYCPNILFPYARECITSMVSRGTFPQLNLAPVNFDALFMNYLQQQAGEGTEEHQDA [T65C]	increasing interaction strength
MSEQNNTEMTFQIQRIYTKDISFEAPNAPHVFQKDWQPEVKLDLDTASSQLADDVYEVVLRVTVTASLGEETAFLCEVQQGGIFSIAGIEGTQMAHCLGAYCPNILFPYARECITSMVSRGTFPQCNLAPVNFDALFMNYLQQQAGEGTEEHQDA [L126C]	increasing interaction strength
MSEQNNTEMTFQIQRIYTKDISFEAPNAPHVFQKDWQPEVKLDLDTASSQLADDVYEVVLRVTVTASLGEETAFLCEVQQGGIFSICGIEGTQMAHCLGAYCPNILFPYARECITSMVSRGTFPQLNLAPVNFDALFMNYLQQQAGEGTEEHQDA [A87C]	increasing interaction strength
